# From paper PMC11180338 (The Journal of Biological Chemistry, 2024)
# Like-named read-outs stand apart in the source and are kept apart here.
# B1: WT-N_(175–245) GFP, GFP-tagged N_(175–245) (domain or fragment)
# chain: GSRGGSQASSRSSSRSRNSSRNSTPGSSRGTSPARMAGNGGDAALALLLLDRLNQLESKMSGKGQQQQGQT
# B2: pSer188-N_(175–245) GFP (domain or fragment)
# chain: B1 chain
# modifications: phosphoserine at 188
# How the values were obtained:
# [1] = molecular target: nucleocapsid protein (N) 175-245 (UniProt P0DTC9); conditions: sites S188
# [2] = molecular target: nucleocapsid protein (N) 175-245 (UniProt P0DTC9); conditions: sites S188; remark: listed apart in the source
# [3] = molecular target: nucleocapsid protein (N) 175-365 (UniProt P0DTC9); conditions: sites S188
# [4] = molecular target: the molecule itself; assay: AUC
molecule,measurement,setting,value
nucleocapsid protein (N) 175-245 (from UniProt P0DTC9),binding against the reference,[1],weaker
same,binding against the reference,[2],weaker
nucleocapsid protein (N) 175-365 (from UniProt P0DTC9),binding against the reference,[3],same
B1,Kd,[4],77 µM
same,stoichiometry N,[4],2
B2,Kd,[4],235 µM
